Reference: paper PMC3602377, “Steady-State NTPase Activity of Dengue Virus NS3: Number of Catalytic Sites, Nucleotide Specificity and Activation by ssRNA”

Target: NS3h (NS3 helicase domain) (Dengue virus serotype 2 (cDNA of …, UniProt O09234 1646-2093))
Experiment: fluorescence intensity titration (ex 495 nm, em 525-570 nm), 1:1 single-site fit; 1.5 mM free Mg2+; no ATP stated; constant printed as 'K' in nM, subscript lost, read as Kd
Conditions: protein: recombinant; tags: N-terminal His6 (pET-28a); label: 5'-fluorescein

B1: fluorescein-labeled 10-nt ssRNA (ssRNA)
RNA: AGUUGAGUUG
Kd: 0.75 ± 0.08 nM
